{
  "source": "patent WO2011147762A2",
  "key": {"[1]": {"target": "ED-B fibronectin antigen protein (recombinant), bound to CNBr activated sepharose 4B (UniProt P02751)", "sequence (P02751 1266-1356 limits assumed)": "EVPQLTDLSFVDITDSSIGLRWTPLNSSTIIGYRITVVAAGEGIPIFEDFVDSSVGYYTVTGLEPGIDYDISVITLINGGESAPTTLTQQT", "experiment": "ED-B sepharose column, % of total radioactivity bound; Study A; maltose 10 mg/mL; day 0"}, "[2]": {"target": "ED-B fibronectin antigen protein (recombinant), bound to CNBr activated sepharose 4B (UniProt P02751)", "experiment": "ED-B sepharose column, % of total radioactivity bound; Study A; maltose 10 mg/mL; day 3"}, "[3]": {"target": "ED-B fibronectin antigen protein (recombinant), bound to CNBr activated sepharose 4B (UniProt P02751)", "experiment": "ED-B sepharose column, % of total radioactivity bound; Study A; maltose 5 mg/mL; day 1"}, "[4]": {"target": "ED-B fibronectin antigen protein (recombinant), bound to CNBr activated sepharose 4B (UniProt P02751)", "experiment": "ED-B sepharose column, % of total radioactivity bound; Study B3; inositol 10 mg/mL; day 3"}, "[5]": {"target": "ED-B fibronectin antigen protein (recombinant), bound to CNBr activated sepharose 4B (UniProt P02751)", "experiment": "ED-B sepharose column, % of total radioactivity bound; Study A; inositol 5 mg/mL; day 0"}, "[6]": {"target": "ED-B fibronectin antigen protein (recombinant), bound to CNBr activated sepharose 4B (UniProt P02751)", "experiment": "ED-B sepharose column, % of total radioactivity bound; Study B3; ascorbic acid 25 mg/mL; day 7"}, "[7]": {"target": "ED-B fibronectin antigen protein (recombinant), bound to CNBr activated sepharose 4B (UniProt P02751)", "experiment": "ED-B sepharose column, % of total radioactivity bound; Study B3; thioglycerol 10 mg/mL; day 0"}, "[8]": {"target": "ED-B fibronectin antigen protein (recombinant), bound to CNBr activated sepharose 4B (UniProt P02751)", "experiment": "ED-B sepharose column, % of total radioactivity bound; Study B3; thioglycerol 10 mg/mL; day 3"}, "[9]": {"target": "ED-B fibronectin antigen protein (recombinant), bound to CNBr activated sepharose 4B (UniProt P02751)", "experiment": "ED-B sepharose column, % of total radioactivity bound; Study A; sodium thiosulfate 50 mg/mL; day 5"}, "[10]": {"target": "ED-B fibronectin antigen protein (recombinant), bound to CNBr activated sepharose 4B (UniProt P02751)", "experiment": "ED-B sepharose column, % of total radioactivity bound; Study A; methionine 25 mg/mL; day 5"}, "[11]": {"target": "ED-B fibronectin antigen protein (recombinant), bound to CNBr activated sepharose 4B (UniProt P02751)", "experiment": "ED-B sepharose column, % of total radioactivity bound; Study A; sodium thiosulfate 25 mg/mL; day 7"}, "[12]": {"target": "ED-B fibronectin antigen protein (recombinant), bound to CNBr activated sepharose 4B (UniProt P02751)", "experiment": "ED-B sepharose column, % of total radioactivity bound; Study A; sodium thiosulfate 5 mg/mL; day 0"}, "[13]": {"target": "ED-B fibronectin antigen protein (recombinant), bound to CNBr activated sepharose 4B (UniProt P02751)", "experiment": "ED-B sepharose column, % of total radioactivity bound; Study A; methionine 25 mg/mL; day 0"}, "[14]": {"target": "ED-B fibronectin antigen protein (recombinant), bound to CNBr activated sepharose 4B (UniProt P02751)", "experiment": "ED-B sepharose column, % of total radioactivity bound; Study A; maltose 25 mg/mL; day 1"}, "[15]": {"target": "ED-B fibronectin antigen protein (recombinant), bound to CNBr activated sepharose 4B (UniProt P02751)", "experiment": "ED-B sepharose column, % of total radioactivity bound; Study A; sodium thiosulfate 25 mg/mL; day 3"}, "[16]": {"target": "ED-B fibronectin antigen protein (recombinant), bound to CNBr activated sepharose 4B (UniProt P02751)", "experiment": "ED-B sepharose column, % of total radioactivity bound; Study A; sodium thiosulfate 50 mg/mL; day 3"}, "[17]": {"target": "ED-B fibronectin antigen protein (recombinant), bound to CNBr activated sepharose 4B (UniProt P02751)", "experiment": "ED-B sepharose column, % of total radioactivity bound; Study A; sodium thiosulfate 25 mg/mL; day 5"}, "[18]": {"target": "ED-B fibronectin antigen protein (recombinant), bound to CNBr activated sepharose 4B (UniProt P02751)", "experiment": "ED-B sepharose column, % of total radioactivity bound; Study B3; inositol 10 mg/mL; day 5"}, "[19]": {"target": "ED-B fibronectin antigen protein (recombinant), bound to CNBr activated sepharose 4B (UniProt P02751)", "experiment": "ED-B sepharose column, % of total radioactivity bound; Study A; inositol 10 mg/mL; day 5"}, "[20]": {"target": "ED-B fibronectin antigen protein (recombinant), bound to CNBr activated sepharose 4B (UniProt P02751)", "experiment": "ED-B sepharose column, % of total radioactivity bound; Study A; inositol 25 mg/mL; day 0"}, "[21]": {"target": "ED-B fibronectin antigen protein (recombinant), bound to CNBr activated sepharose 4B (UniProt P02751)", "experiment": "ED-B sepharose column, % of total radioactivity bound; Study A; maltose 50 mg/mL; day 5"}, "[22]": {"target": "ED-B fibronectin antigen protein (recombinant), bound to CNBr activated sepharose 4B (UniProt P02751)", "experiment": "ED-B sepharose column, % of total radioactivity bound; Study A; sodium thiosulfate 10 mg/mL; day 0"}, "[23]": {"target": "ED-B fibronectin antigen protein (recombinant), bound to CNBr activated sepharose 4B (UniProt P02751)", "experiment": "ED-B sepharose column, % of total radioactivity bound; Study A; no-excipient control (saline); day 7"}, "[24]": {"target": "ED-B fibronectin antigen protein (recombinant), bound to CNBr activated sepharose 4B (UniProt P02751)", "experiment": "ED-B sepharose column, % of total radioactivity bound; Study A; maltose 25 mg/mL; day 3"}, "[25]": {"target": "ED-B fibronectin antigen protein (recombinant), bound to CNBr activated sepharose 4B (UniProt P02751)", "experiment": "ED-B sepharose column, % of total radioactivity bound; Study B3; inositol 10 mg/mL; day 1"}, "[26]": {"target": "ED-B fibronectin antigen protein (recombinant), bound to CNBr activated sepharose 4B (UniProt P02751)", "experiment": "ED-B sepharose column, % of total radioactivity bound; Study A; maltose 5 mg/mL; day 3"}, "[27]": {"target": "ED-B fibronectin antigen protein (recombinant), bound to CNBr activated sepharose 4B (UniProt P02751)", "experiment": "ED-B sepharose column, % of total radioactivity bound; Study A; inositol 50 mg/mL; day 3"}, "[28]": {"target": "ED-B fibronectin antigen protein (recombinant), bound to CNBr activated sepharose 4B (UniProt P02751)", "experiment": "ED-B sepharose column, % of total radioactivity bound; Study A; inositol 10 mg/mL; day 7"}},
  "data": [
    {"substance": "131I L19-SIP (radioiodinated L19 SIP homodimer)", "values": [
      {"measurement": "Immunoreactivity (%)", "setting": "[1]", "value": 92.8, "unit": "%"},
      {"measurement": "Immunoreactivity (%)", "setting": "[2]", "value": 65.2, "unit": "%"},
      {"measurement": "Immunoreactivity (%)", "setting": "[3]", "value": 84.4, "unit": "%"},
      {"measurement": "Immunoreactivity (IR) (%)", "setting": "[4]", "value": 74.8, "unit": "%"},
      {"measurement": "Immunoreactivity (%)", "setting": "[5]", "value": 94.8, "unit": "%"},
      {"measurement": "Immunoreactivity (IR) (%)", "setting": "[6]", "value": 55.3, "unit": "%"},
      {"measurement": "Immunoreactivity (IR) (%)", "setting": "[7]", "value": 80.1, "unit": "%"},
      {"measurement": "Immunoreactivity (IR) (%)", "setting": "[8]", "value": 59.5, "unit": "%"},
      {"measurement": "Immunoreactivity (%)", "setting": "[9]", "value": 91.5, "unit": "%"},
      {"measurement": "Immunoreactivity (%)", "setting": "[10]", "value": 48.6, "unit": "%"},
      {"measurement": "Immunoreactivity (%)", "setting": "[11]", "value": 78.5, "unit": "%"},
      {"measurement": "Immunoreactivity (%)", "setting": "[12]", "value": 97.3, "unit": "%"},
      {"measurement": "Immunoreactivity (%)", "setting": "[13]", "value": 97.2, "unit": "%"},
      {"measurement": "Immunoreactivity (%)", "setting": "[14]", "value": 86.4, "unit": "%"},
      {"measurement": "Immunoreactivity (%)", "setting": "[15]", "value": 92.3, "unit": "%"},
      {"measurement": "Immunoreactivity (%)", "setting": "[16]", "value": 91.7, "unit": "%"},
      {"measurement": "Immunoreactivity (%)", "setting": "[17]", "value": 87.9, "unit": "%"},
      {"measurement": "Immunoreactivity (IR) (%)", "setting": "[18]", "value": 61.2, "unit": "%"},
      {"measurement": "Immunoreactivity (%)", "setting": "[19]", "value": 58.9, "unit": "%"},
      {"measurement": "Immunoreactivity (%)", "setting": "[20]", "value": 94.1, "unit": "%"},
      {"measurement": "Immunoreactivity (%)", "setting": "[21]", "value": 55.6, "unit": "%"},
      {"measurement": "Immunoreactivity (%)", "setting": "[22]", "value": 96.2, "unit": "%"},
      {"measurement": "Immunoreactivity (%)", "setting": "[23]", "value": 43.7, "unit": "%"},
      {"measurement": "Immunoreactivity (%)", "setting": "[24]", "value": 66, "unit": "%"},
      {"measurement": "Immunoreactivity (IR) (%)", "setting": "[25]", "value": 77.1, "unit": "%"},
      {"measurement": "Immunoreactivity (%)", "setting": "[26]", "value": 66.3, "unit": "%"},
      {"measurement": "Immunoreactivity (%)", "setting": "[27]", "value": 71.6, "unit": "%"},
      {"measurement": "Immunoreactivity (%)", "setting": "[28]", "value": 60.7, "unit": "%"}
    ]}
  ]
}
